# Changes are numbered by the printed parent chain. Names may count otherwise.
# B1: 165_13_A4 human IgG4 (antibody, V domains shown)
# VH: QVQLVESGGGLVQPGRSLRLSCAASGFTFDDYAMHWVRQAPGKGLEWVSGISGSGGSTYYADSVKGRFTISRDNAKNSLYLQMNSLRAEDTALYYCAKDKYPVLDTFDIWGQGTMVTVSS
# VL: DIQMTQSPASLPTPVGDRVTITCRASQYIQGFLNWYQQKPGKAPKLLIYDASNLETGVPSRFSGSGSGTDFTLTISSLQPEDFATYYCQQSYSTPQTFGQGTKVDIKR
# notes: human IgG4 with hinge S241P
# B2: 165_13_B3 human IgG4 (antibody, V domains shown)
# VH: B1 VH with D99A, K100L, Y101A, P102R, V103G, L104H
# VL: B1 VL
# notes: human IgG4 with hinge S241P
# B3: 165_13_E1 human IgG4 (antibody, V domains shown)
# VH: B1 VH with K100I, Y101S, P102A, L104M, T106V, F107P, D108Q, I109T
# VL: B1 VL
# notes: human IgG4 with hinge S241P
# B4: 180_11_F5 human IgG4 (antibody, V domains shown)
# VH: B1 VH with D99V, K100M, Y101R, P102T, V103G
# VL: B1 VL
# notes: human IgG4 with hinge S241P; also called Antibody 180 11 F5 (derived from B12)
# B5: 160_01_D6 human IgG4 (antibody, V domains shown)
# VH: EVRLVQSGAEVKKPGASVKVSCKVSGYTLTELSMHWVRQAPGKGLEWMGGFDPEDGETIYAQKFQGRVTMTEDTSTDTAYMELSSLRSEDTAVYYCATAQADPHLFTYWGQGTLVTVSS
# VL: B1 VL with P14S, K45R, D50A, N53T, E55Q, T56D, S67Y, Q96W, D105E
# notes: human IgG4 with hinge S241P; also called Antibody 160 01 D6 (derived from 2A5)
# B6: 160_01_E3 human IgG4 (antibody, V domains shown)
# VH: B5 VH with A99Q, Q100R, A101Y, D102V, P103W, H104E, L105A, F106L
# VL: B1 VL with P14S, K45R, D50A, N53T, E55Q, T56D, S67Y, Q96W, D105E
# notes: human IgG4 with hinge S241P; also called Antibody 160 01 E3 (derived from 2A5)
# B7: 160_01_F1 human IgG4 (antibody, V domains shown)
# VH: B5 VH with A101S, D102P, P103W, H104S, L105G, F106M
# VL: B1 VL with P14S, K45R, D50A, N53T, E55Q, T56D, S67Y, Q96W, D105E
# notes: human IgG4 with hinge S241P; also called Antibody 160 01 F1 (derived from 2A5)
# B8: 160_01_H4 human IgG4 (antibody, V domains shown)
# VH: B5 VH with A99G, Q100R, A101F, D102V, P103W, H104E, L105A, F106L
# VL: B1 VL with P14S, K45R, D50A, N53T, E55Q, T56D, S67Y, Q96W, D105E
# notes: human IgG4 with hinge S241P; also called Antibody 160 01 H4 (derived from 2A5)
# B9: 161_01_C11 human IgG4 (antibody, V domains shown)
# VH: B5 VH with A101K, D102E, P103W, H104L, L105P, F106D, T107V, Y108T
# VL: B1 VL with P14S, K45R, D50A, N53T, E55Q, T56D, S67Y, Q96W, D105E
# notes: human IgG4 with hinge S241P; also called Antibody 161 01 C11 (derived from 2A5)
# B10: 162_02_C1 human IgG4 (antibody, V domains shown)
# VH: B5 VH with A101K, D102E, P103T, H104Y, L105A, F106L
# VL: DIQMTQSPASLPTSVGDRVTITCRASQYIQGFLNWYQQKPGKAPRLLIYAASTLQDGVPSRFSGSGYGTDFTLTISSLQPEDFATYYCLHHYRAPWTFGQGTKVEIKR
# notes: human IgG4 with hinge S241P; also called Antibody 162 02 C1 (derived from 2A5)
# B11: 162_02_C2 human IgG4 (antibody, V domains shown)
# VH: B5 VH with A101K, D102E, P103T, H104Y, L105A, F106L
# VL: B10 VL with L89M
# notes: human IgG4 with hinge S241P; also called Antibody 162 02 C2 (derived from 2A5)
# B12: 162_02_F4 human IgG4 (antibody, V domains shown)
# VH: B5 VH with A101K, D102E, P103T, H104Y, L105A, F106L
# VL: B10 VL with L89M, A94S
# notes: human IgG4 with hinge S241P; also called Antibody 162 02 F4 (derived from 2A5)
# Key:
# [1] = target: T1, mouse tenascin-C rCd4-His-FBG (rat; mouse, UniProt P05540 207-392, limits assumed); assay: SPR off-rate screen, captured IgG4 supernatant, 25 C
# T1 construct: domain: domains 3 and 4; C-terminal FBG fusion; biotinylated in the ELISA screen; also called Mu TNC; mouse TNC rCd4-His-FBG; not shown: 6His tag
# T1 sequence (chain (part 1 of 2)): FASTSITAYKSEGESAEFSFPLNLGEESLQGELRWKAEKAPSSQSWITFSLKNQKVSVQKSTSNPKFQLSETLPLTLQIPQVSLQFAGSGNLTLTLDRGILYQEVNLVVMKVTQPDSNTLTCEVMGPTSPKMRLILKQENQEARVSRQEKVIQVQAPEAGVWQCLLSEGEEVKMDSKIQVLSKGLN
# T1 sequence (chain (part 2 of 2)): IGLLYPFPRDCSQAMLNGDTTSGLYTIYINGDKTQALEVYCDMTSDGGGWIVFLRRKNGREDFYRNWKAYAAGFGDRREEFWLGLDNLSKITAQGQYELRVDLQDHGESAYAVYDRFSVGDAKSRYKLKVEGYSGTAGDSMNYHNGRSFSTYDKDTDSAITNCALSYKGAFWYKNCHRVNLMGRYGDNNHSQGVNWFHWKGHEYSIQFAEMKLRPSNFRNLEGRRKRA
# Description: (§1) The 31 scFv of interest were sub-cloned into a human IgG4 expression vector for generation of antibodies as human IgG4 with a hinge-stabilising mutation (S241P; Angal et al, 1993). […] Briefly, surface plasmon resonance (SPR) experiments were performed using a BIAcore T100 instrument and followed the protocol according to the Human antibody capture kit protocol (GE, BR-1008-39). For off-rate screening, 10,000 response units (RU) of anti-human Fc IgG (GE, BR-1008-39) was immobilised on flow-cells (FC1 and FC2) of a Series 5 CM5 dextran sensor chip (BR-1005-30) using EDC/NHS cross-linking chemistry according to the amine coupling kit protocol (GE, BR-1000-50). Culture supernatants containing expressed IgG4 were diluted 1:2 with 2×PBS-T and injected into FC2 (flowrate 5 μl/min, 60 s contact time) to enable antibody capture at 25° C. […] A fixed concentration of antigen (15 nM of human and mouse TNC rCd4-His-FBG and 100 nM of human TNR rCd4-His-FBG) was injected with a flow-path via FC 1 (reference flow cell) and FC 2 (antibody capture flow cell), with a flow rate of 30 μl/min, and the association and dissociation phases measured over 1 and 5 min time periods, respectively. Regeneration of the binding surface employed 3M MgCl₂ with 30 s contact time. Off rates were determined by reference cell subtraction and fitting the sensogram experimental data assuming a 1:1 interaction using BIAevaluation software (GE, BR-1005-97).
# [2] = target: T2, human tenascin-C rCd4-His-FBG (rat; human, UniProt P05540 207-392, limits assumed); assay: as above
# T2 construct: domain: domains 3 and 4; C-terminal FBG fusion; biotinylated in the ELISA and HTRF screens; also called Hu TNC; human TNC rCd4-His-FBG; not shown: 6His tag
# T2 sequence (chain (part 1 of 2)): T1 sequence (chain (part 1 of 2))
# T2 sequence (chain (part 2 of 2)): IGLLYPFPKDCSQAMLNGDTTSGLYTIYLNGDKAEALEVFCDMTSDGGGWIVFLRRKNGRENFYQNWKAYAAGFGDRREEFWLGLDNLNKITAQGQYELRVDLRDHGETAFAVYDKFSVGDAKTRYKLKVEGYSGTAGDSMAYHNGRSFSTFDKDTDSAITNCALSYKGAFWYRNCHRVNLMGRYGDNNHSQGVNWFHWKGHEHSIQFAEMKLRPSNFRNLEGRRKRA
# Description: as §1
Binder,koff [1],koff [2]
B1,0.00797 s⁻¹,0.000872 s⁻¹
B2,0.03 s⁻¹,1.4e-06 s⁻¹
B3,0.0577 s⁻¹,1.4e-06 s⁻¹
B4,1 s⁻¹,2.6e-05 s⁻¹
B5,0.0559 s⁻¹,1.05e-05 s⁻¹
B6,0.0559 s⁻¹,
B7,,4e-06 s⁻¹
B8,0.0171 s⁻¹,1.6e-05 s⁻¹
B9,,2.2e-07 s⁻¹
B10,0.0016 s⁻¹,< 1e-05 s⁻¹
B11,0.0017 s⁻¹,1.15e-05 s⁻¹
B12,0.001 s⁻¹,5.9e-07 s⁻¹

# Source: patent US20170306005A1 (NASCIENT, published 2017)
